From article doi:10.1101/2023.04.06.535920 (bioRxiv, 2023)

Molecular target: T1, Fc-tagged recombinant mouse FGL1 full length (mouse, UniProt Q71KU9 23-314)
T1 sequence (looked up): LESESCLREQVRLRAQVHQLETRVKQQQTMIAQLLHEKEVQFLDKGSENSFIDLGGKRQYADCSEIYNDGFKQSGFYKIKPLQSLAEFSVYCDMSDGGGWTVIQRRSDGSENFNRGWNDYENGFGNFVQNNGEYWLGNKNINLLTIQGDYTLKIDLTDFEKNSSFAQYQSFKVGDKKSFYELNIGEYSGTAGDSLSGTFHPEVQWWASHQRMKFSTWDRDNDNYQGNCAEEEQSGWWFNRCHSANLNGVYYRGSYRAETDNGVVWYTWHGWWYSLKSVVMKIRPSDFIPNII
Assay: pull-down

B1: hBMP6 (ligand, human, UniProt P22004 375-513, looked up)
chain: SASSRRRQQSRNRSTQSQDVARVSSASDYNSSELKTACRKHELYVSFQDLGWQDWIIAPKGYAANYCDGECSFPLNAHMNATNHAIVQTLVHLMNPEYVPKPCCAPTKLNAISVLYFDDNSNVILKKYRNMVVRACGCH
  binding result: binds
